According to patent publication US20230391872A1 (ANAPTYSBIO, published 2023):

Columns and labels:
[1] = target: T1, human BTLA ECD-his (monomeric human BTLA-his) (human, UniProt Q7Z6A9 31-157); assay: SPR (Biacore T200), antibody captured on anti-human IgG chip, monomeric BTLA-his flowed at 60, 20, 6.7 and 2.2 nM, 1:1 binding model, 25 C [upper right panel (Hu BTLA]
T1 construct: extracellular domain; also called human BTLA extracellular domain
T1 sequence (looked up): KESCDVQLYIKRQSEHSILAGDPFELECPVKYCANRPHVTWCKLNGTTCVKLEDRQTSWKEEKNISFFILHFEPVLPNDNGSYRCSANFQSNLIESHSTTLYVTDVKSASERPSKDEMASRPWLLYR
Protocol: (§1) Surface plasmon resonance (SPR) analyses were carried out using a Biacore T200 (GE Healthcare Life Sciences). Kinetic constants were determined using a 1:1 binding model in the Biacore T200 Evaluation Software to calculate on- and off-rates (kₐ and kd, respectively), and dissociation constants as a measure of overall affinity (KD). Anti-human IgG (GE Healthcare Life Sciences) was immobilized on a CMS chip using EDC-activated amine coupling chemistry (420 seconds contact at a flow rate of 10 μl/min). Antibodies (APE10585.04 6G3 IgG1 and APE10840.05 6G3 IgG4), each at 0.5 μg/m1) were captured in a 60 second contact with the flow cell using a flow rate of 10 μl/min. Monomeric human BTLA-his or cynomolgus monkey BTLA-his at 60 nM, 20 nM, 6.7 nM and 2.2 nM concentrations was flowed over captured antibody (480 seconds association, 1800 seconds dissociation). Runs were at 25° C. and used buffer containing 10 mM HEPES, pH 7.6, 150 mM NaCl, 3 mM EDTA, 0.05% polysorbate 20 (HBS-EP+, pH 7.6; Teknova) for the mobile phase and all dilutions. At the end of each cycle, bound antigen was removed by regeneration with two successive exposures (60 seconds and 90 seconds) to 3 M MgCl2 (30 μl/min). Sensorgrams and binding constants corresponding to the experiment are shown in FIG. 1 (human BTLA) and FIG. 1 (cynomolgus monkey BTLA). Antibody capture levels in resonance units (RU) are listed at the right side of each panel.

[2] = target: T2, human BTLA on cells (stably transfected 293c18 cells; human peripheral blood T and B cells) (human, UniProt Q7Z6A9 31-289); assay: flow cytometry (MFI DyL650) on gated CD8+ T cells of human PBMC, DyLight 650-labelled antibody, three-parameter fit [middle panel (Naive CD8+ T cells]
T2 construct: whole, on cells; the cells are named under assay; also called cell surface BTLA; full-length human BTLA
Protocol: Human peripheral blood mononuclear cells (PBMCs) were isolated by Histopaque (Sigma-Aldrich) density-gradient centrifugation of normal donor blood obtained from the San Diego Blood Bank (San Diego, CA). PBMCs were washed and incubated at 2×10⁷ cells/ml in FACS buffer (PBS, 1% BSA, 0.02% sodium azide) with Human BD Fc Block (2.5 μg/1×10⁶ cells, BD Biosciences) and LIVE/DEAD® Fixable Yellow Dead Cell Stain (30 μl, ThermoFisher Scientific) for 10 minutes on ice. Cells were washed once in FACS buffer, resuspended in FACS buffer at 1×10⁷ cells/ml and the following phenotyping antibodies added: Alexa Fluor 488-anti-human CD3E clone SK7, Brilliant Violet 421-anti-human CD4 clone OKT4, Brilliant Violet 785-anti-human CD8 clone SK1, and Brilliant Violet 570-anti-human CD20 clone 2H7 (50 μl each; all from BioLegend, Inc.). […] Samples were washed twice in FACS buffer, resuspended in 150 μl/well FACS buffer, and analyzed for fluorescence on a NovoCyte Flow Cytometer (ACEA Biosciences, Inc.). Data were analyzed using NovoExpress Software (ACEA Biosciences, Inc.). Median fluorescence intensities of anti-BTLA or isotype staining on gated CD4⁺ T cells (FIG. 4), CD8⁺ T cells (FIG. 4), or CD20⁺ B cells (FIG. 4) were graphed and curves fit with log(agonist) vs. response (three parameters) least squares fit for EC₅₀ calculation in GraphPad Prism (GraphPad Software, Inc.).

[3] = target: T3, cynomolgus monkey BTLA ECD-his (monomeric cynomolgus monkey BTLA-his) (cynomolgus monkey, UniProt A0A2K5W7M7 31-157); assay: SPR, Biacore T200, antibody captured on anti-human IgG, monomeric cynomolgus monkey BTLA-his as analyte, 25 °C, 1:1 model; 6G3 IgG4 (APE10840.05) captured on the chip; cynomolgus BTLA-his analyte
T3 construct: extracellular domain; also called cynomolgus monkey BTLA extracellular domain
T3 sequence: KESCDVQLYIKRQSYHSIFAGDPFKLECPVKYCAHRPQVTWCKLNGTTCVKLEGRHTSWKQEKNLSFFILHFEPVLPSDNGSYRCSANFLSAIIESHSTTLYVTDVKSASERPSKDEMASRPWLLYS
Protocol: as §1, with “Antibody capture levels in resonance units (RU) are listed at the right side of each panel.” left out

B1: 6G3 IgG4 anti-BTLA antibody (APE10840 / APE12839 / APE13308) (antibody, V domains shown)
VH: QVQLVQSGAEVKKPGSSVKVSCKASGYVFSTSWMNWVRQAPGQGLEWMGRIYPGDADTNYVGKFKGRVTITADKSTTTAYMELSSLRSEDTAVYFCAKSGTFNFGNYRWYFDVWGKGTTVTVSS
VL: AIQLTQSPSSLSASVGDRVTITCRVSENIYSHLAWYQQKPGKAPKLLIYAATNLALGVPSRFSGSGSGTDYTLTISSLQPEDFATYYCQLFWGPPLTFGGGTKVEIKR
notes: Humanized antibody from a mouse hybridoma, tested as human IgG4 (detected with anti-human kappa); Some assays used labelled lots (DyLight 650, AF647, biotin, DyL488); also called 6G3 antibody; APE10840.03
Kd [1]: 5.35 nM
koff [1]: 0.0003 s⁻¹
kon [1]: 56200 M⁻¹ s⁻¹
EC50 [2]: 3.23 nM
Kd [3]: ~11 nM
